What was measured:
[1] = molecular target: T1, ARH77-hBCMA 10B5 BCMA expressing transfectant cells (Homo sapiens, UniProt Q02223); test: FACS binding of humanised CA8 to BCMA transfected cells; conditions: varying concentrations, 20 minutes at RT
T1 construct: expressed in transfected cells; host or cells: ARH77 (clone 10B5)
T1 sequence (Q02223 1-184): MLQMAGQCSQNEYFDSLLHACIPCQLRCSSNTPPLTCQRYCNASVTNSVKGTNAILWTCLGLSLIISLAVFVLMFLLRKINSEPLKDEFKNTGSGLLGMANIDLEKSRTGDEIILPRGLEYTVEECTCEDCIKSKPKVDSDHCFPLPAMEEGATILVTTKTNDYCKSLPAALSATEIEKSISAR
Method: (§1) ARH77-hBCMA 10B5 BCMA expressing transfectant cells or H929 cells were stained with either chimeric CA8 or humanised variants of CA8 designated J6M0, J6M1, J6M2, J9M0, J9M1, J9M2 at varying concentrations for 20 minutes at RT. Cells were then washed with FACS buffer (PBS+0.5% BSA+0.1% sodium azide) to remove unbound antibody. Cells were incubated with a secondary PE labelled anti-human IgG antibody for 15 minutes at RT and then washed with FACS buffer to remove unbound antibody. Cells were analysed by FACS and mean fluorescence intensity (MFI) values measured to determine binding.

BCMA-Fc = test: Biacore cross reactivity experiment, BCMA-Fc; assay type: binding; conditions: antibody captured on protein A
Method: (§2) CA8 chimera antibody was injected and captured on protein A. (A protein A derivitised sensorchip was used). Residual protein A binding was blocked with an injection of a high concentration of human IgG solution. BCMA-Fc, TACI-Fc or BAFF-R-Fc solutions were then tested for binding to the antibody. The 3 proteins were injected in sequence and binding events were measured. The surface was regenerated between injection of each protein.
(§3) Sensorgrams were analysed in the Biaevaluation program. Double reference subtraction was done to remove instrument noise and any non-specific binding from the sensorgram curves.

H929 cells = test: FACS binding of humanised CA8 to H929 cells; design: species or system human; conditions: varying concentrations, 20 minutes at RT
Method: as §1

Cyno in house BCMA = test: ProteOn analysis of CA8 chimeric and humanised constructs, cyno in house BCMA; assay type: binding; conditions: 25° C.; for ka: in M-1s-1 (unit assumed); for kd: in s-1 (unit assumed)
Cyno in house BCMA, sequence (as listed by the source): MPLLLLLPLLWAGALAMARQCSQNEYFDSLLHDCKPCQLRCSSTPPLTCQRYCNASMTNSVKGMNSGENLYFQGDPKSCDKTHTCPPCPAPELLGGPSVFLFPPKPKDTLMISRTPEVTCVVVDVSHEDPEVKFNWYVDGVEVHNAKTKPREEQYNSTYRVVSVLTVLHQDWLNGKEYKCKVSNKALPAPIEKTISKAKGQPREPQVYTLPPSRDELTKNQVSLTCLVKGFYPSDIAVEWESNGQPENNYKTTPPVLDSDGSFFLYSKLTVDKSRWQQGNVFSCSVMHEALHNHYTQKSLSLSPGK

Human BCMA-Fc = molecular target: T2, Human BCMA-Fc (Homo sapiens, UniProt Q02223); test: ELISA binding to recombinant human BCMA-Fc; conditions: 5 ug/ml to 0.1 ug/ml antibody
T2 construct: CD33 signal peptide (N); TEV site (internal)
T2 sequence (Q02223 with tags, fused parts or gaps): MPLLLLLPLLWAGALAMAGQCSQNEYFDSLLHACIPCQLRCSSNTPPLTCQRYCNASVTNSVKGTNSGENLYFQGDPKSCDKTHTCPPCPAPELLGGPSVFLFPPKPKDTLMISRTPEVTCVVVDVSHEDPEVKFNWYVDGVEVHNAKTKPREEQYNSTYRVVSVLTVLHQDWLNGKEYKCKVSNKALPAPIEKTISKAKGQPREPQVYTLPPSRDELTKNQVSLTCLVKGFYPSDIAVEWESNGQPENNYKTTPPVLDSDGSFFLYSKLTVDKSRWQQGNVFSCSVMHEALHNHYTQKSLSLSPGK
Method: (§4) Chimeric CA8 antibodies were tested for binding to human BCMA and cyno BCMA expressed as Fc fusions. Human BCMA-Fc and cyno BCMA-Fc were coated to ELISA plates and the plates were blocked using BSA to reduce non specific binding. CA8 chimeric antibodies were added in a concentration range from 5 ug/ml to 0.1 ug/ml to the human and cyno BCMA coated ELISA plates. Any bound human chimeric CA8 antibody was detected using anti-human IgG HRP conjugated secondary antibody as appropriate. HRP substrate (TMB) was added to develop the ELISA.

[2] = tested on: human multiple myeloma cell lines NCI-H929, U266-B1, JJN3 and OPM2; test: ADC activity of chimeric CA8 ADCs, 4 multiple myeloma cell lines (Cell titre Glo, 96 hours); assay type: cell-based; conditions: 1 ug/ml to 5 ng/ml, all 4 cell lines
Method: FIG. 11: Viability assay dose response curves—Figure showing dose response curves in a cell viability assay for chimeric CA8 antibody, chimeric CA8-vcMMAE and chimeric CA8-mcMMAF antibody-drug conjugates in human multiple myeloma cell lines NCI-H929, U266-B1, JJN3 and OPM2. Antibody was added to the cells and the number of viable cells after 96 hours measured using CelltiterGlo. Data points represent the mean of triplicate CellTiterGlo measurements. Error bars represent standard error.
Multiple Myeloma cell lines were treated with chimeric CA8 antibody-drug conjugates to determine the ADC concentrations required for growth inhibition and death.
The antibody drug conjugates tested were added to wells containing multiple myeloma cells at concentrations ranging from 1 ug/ml to 5 ng/ml. The plates were incubated at 37° C. for 96 hours at which point viable cells were quantitated using Cell titre Glo.

BAFF-R-Fc = test: Biacore cross reactivity experiment, BAFF-R-Fc; assay type: binding; conditions: antibody captured on protein A; listed as CA8 chimera antibody
BAFF-R-Fc, sequence (Q96RJ3 1-78 limits assumed): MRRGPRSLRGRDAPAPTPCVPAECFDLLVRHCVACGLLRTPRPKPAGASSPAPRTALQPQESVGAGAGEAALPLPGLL
Method: as §2, §3

[3] = tested on: multiple myeloma cell lines H929, OPM-2, JJN-3 and U266; test: FACS binding curve of chimeric CA8 to multiple myeloma cells; design: species or system human; conditions: varying concentrations, 20 minutes at RT
Method: A panel of multiple myeloma cell lines were used to determine the binding of chimeric CA8. […] Cells were then washed with FACS buffer (PBS+0.5% BSA+0.1% sodium azide) to remove unbound antibody. Cells were incubated with a secondary PE labelled anti-human IgG antibody for 15 minutes at RT and then washed with FACS buffer to remove unbound antibody. Cells were analysed by FACS and mean fluorescence intensity (MFI) values measured to determine binding.

human BCMA HEK293 = molecular target: T3, human BCMA HEK293 (Homo sapiens, UniProt Q02223); test: FMAT binding assay, human BCMA expressing HEK293 cells; conditions: range of antibody concentrations
T3 construct: expressed in transfected cells; host or cells: HEK293
T3 sequence (Q02223 1-184): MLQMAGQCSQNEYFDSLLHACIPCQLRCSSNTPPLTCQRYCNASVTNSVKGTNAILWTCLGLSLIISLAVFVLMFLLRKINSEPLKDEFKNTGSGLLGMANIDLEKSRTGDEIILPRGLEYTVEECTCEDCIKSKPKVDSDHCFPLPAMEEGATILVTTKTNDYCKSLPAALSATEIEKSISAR
Method: Cryopreserved transfected human, cyno BCMA and mock transfected HEK293 cells were recovered from LN2 storage. Assay wells were prepared with human chimeric CA8 antibody, at a range of different concentrations, mixed with human BCMA HEK293, cyno BCMA HEK293 and mock transfected cells respectively. Anti-human IgG FMAT Blue secondary conjugate was added for detection of human chimeric CA8. The assay plates were left for a minimum of 90 minutes before the result was read on the ABI8200 (FMAT) plate reader.

cyno BCMA-Fc = test: ELISA binding to recombinant cyno BCMA-Fc; conditions: 5 ug/ml to 0.1 ug/ml antibody
cyno BCMA-Fc, sequence (as listed by the source): as the sequence (as listed by the source) above
Method: as §4

[4] = tested on: ARH77 BCMA transfected target cells (10B5); test: ADCC of chimeric and defucosylated chimeric CA8 with NK cells; assay type: cell-based; conditions: human NK cells, E:T ratio 5:1, 2 hours
Method: Human natural killer (NK) cells were incubated with europium labelled ARH77 BCMA transfected target cells (10B5) in the presence of varying concentrations of antibody at an E:T ratio of 5:1 for 2 hours. Europium release from the target cells was measured and specific lysis calculated.

Human commercial BCMA = molecular target: T4, Human commercial BCMA (Homo sapiens, UniProt Q02223); test: BIAcore analysis J7 to J9 series, human commercial BCMA; assay type: binding; conditions: 37° C.
T4 construct: purchased US Biological B0410
T4 sequence (Q02223 1-184): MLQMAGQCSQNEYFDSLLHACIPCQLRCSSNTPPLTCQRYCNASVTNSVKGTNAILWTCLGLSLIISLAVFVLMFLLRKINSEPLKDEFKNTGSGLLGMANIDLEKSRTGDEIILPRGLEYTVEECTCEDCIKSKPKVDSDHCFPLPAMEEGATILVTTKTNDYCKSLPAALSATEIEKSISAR
Method: Protein A was immobilised on a CMS chip (GE Healthcare, Cat No: BR-1005-30) by primary amine coupling and this surface was then used to capture the antibody molecules. Recombinant human BCMA (US Biological, B0410) was used as analyte at 256 nM, 64 nM, 16 nM, 4 nM and 1 nM. Regeneration of the capture surface was carried out using 50 mM NaOH. All binding curves were double referenced with a buffer injection (i.e. 0 nM) and the data was fitted to the using the 1:1 model inherent to T100 evaluation software. The run was carried out at 37° C., using HBS-EP as the running buffer.

[5] = listed as human chimeric CA8 antibodies

B1: CA8 Chimera: chimeric anti-BCMA antibody: murine CA8 VH (SEQ ID NO:7) and VL (SEQ ID NO:9) on human γ1 and kappa constant regions (antibody, V domains shown)
VH: EVQLQQSGAVLARPGASVKMSCKGSGYTFTNYWMHWVKQRPGQGLEWIGATYRGHSDTYYNQKFKGKAKLTAVTSTSTAYMELSSLTNEDSAVYYCTRGAIYNGYDVLDNWGQGTLVTVSS
VL: DIQLTQTTSSLSASLGDRVTISCSASQDISNYLNWYQQKPDGTVELVIYYTSNLHSGVPSRFSGSGSGTDYSLTIGYLEPEDVATYYCQQYRKLPWTFGGGSKLEIKR
modifications: human IgG1 and kappa constant regions; mus musculus
[1]
  dose dependent binding to ARH77-hBCMA 10B5 cells by FACS (MFI): bound
BCMA-Fc
  binding to BCMA-Fc: specific for binding to BCMA
H929 cells
  dose dependent binding to H929 cells by FACS (MFI): bound
Cyno in house BCMA; Run 1, Cyno in house BCMA
  ka: 3.82E+05
  kd: 1.74E−04
Cyno in house BCMA; Run 2, Cyno in house BCMA
  ka: 5.89E+04
  kd: 1.21E−04
Human BCMA-Fc; listed as Chimeric CA8
  binding to recombinant human BCMA (ELISA): binds to recombinant human and cyno BCMA
Human BCMA-Fc; [5]
  binding to recombinant human BCMA (ELISA): bind to human and cyno BCMA proteins equally
[2]
  growth inhibitory activity: no significant growth inhibitory activity
BAFF-R-Fc
  binding to BAFF-R-Fc: does not bind
[3]
  binding to multiple myeloma cell lines by FACS (MFI): bound to multiple myeloma cell lines H929, OPM-2, JJN-3 & U266 in a dose dependent manner
Human BCMA HEK293
  binding to human BCMA expressed on HEK293 cells: binds well
Cyno BCMA-Fc; listed as Chimeric CA8
  binding to recombinant cyno BCMA (ELISA): binds to recombinant human and cyno BCMA
Cyno BCMA-Fc; [5]
  binding to recombinant cyno BCMA (ELISA): bind to human and cyno BCMA proteins equally
[4]
  ADCC activity (specific lysis, europium release): killed BCMA expressing target cells via ADCC
Human commercial BCMA; in M-1s-1 (unit assumed)
  ka: 3.27E+07
Human commercial BCMA; in s-1 (unit assumed)
  kd: 1.18E−03

From US11419945B2, “Antigen binding proteins” (Glaxo Group Limited, priority 2011, dated 2022)
